Assay results as given in the DeepSol protein solubility set.

Test: soluble on expression in E. coli; label from the status in PepcDB or PDB records

| Sequence | soluble on expression in E. coli |
| --- | --- |
| SAAVGAEARGAWCVPCLVSLDTLQELCRKEKLTCKSIGITKRNLNNYEVEYLCDYKVVKDMEYYLVKWKGWPDSTNTWEPLQNLKCPLLLQQFSNDKHNYLSQVITSEEAERRGQFYDNKGITYLFDLDYESDEFTVDAARYGNVSHFVNHSCDPNLQVFNVFIDNLDTRLPRIALFSTRTINAGEELTFDYQMKGSGDISSDSIDHSPAKKRVRTVCKCGAVTCRGYLN | soluble |
| SADEEDSLSQFDISKEETDKLVSEVIRFILFKFHQNSGTPIKREDLTQIVTKNYRQRNLATHVINEAKKKLSNVFGYDLKELQRARSSSTGQSRLPQSQSSVDSKSYVLVSELPLEVFKKHVVDETTSPVTGFTFVVLAIVQLAGGKIPEGMLLLGLLRRSFLWFRCNVLCKVVEWKSKVHYRDLFKNLKL | soluble |
| SAEASSANLGSGCEEKRHEGSSSESVPPGTTISRVKLLDTMVDTFLQKLVAAGSYQRFTDCYKCFYQLQPAMTQRIYDKFIAQLQTSIREEISDIKEEGNLEAVLNALDKIVEEGKVRKEPAWCEAQRCRVQQRCSLCVQAGGQRGSEETQALPVSMAGSPSPLPGSPGAQEGGV | soluble |
| SAEEKVKDEAMQIMGMFQILPRLVVFDLDYTLWPFYCECRSKREMPSMYPQAKGILSALKEKGIEMAIASRSPTSDIANTFLDKLNIKPMFVAKEIYSSWSHKTEHFQKIHTRTGVPFTAMLFFDDEDRNIKSVSKMGVTSILVGDGVTLGAFRQGLTEFTQNHNSIEKNKQVWRDKYSGKPTSSETDKD | soluble |
| SALIAALSVSGLPSNRFTFEGFLPAKPTARRDRLTHLAHEPRTLIFYEASHRIAECLTDLATIFGSMRIAVVARELTKIFETVLDGTLATLQTQVANDENQRKGEFVIIVQGAADQ | not soluble |
| SANSGEGKVVCVTGASGYIASWLVKFLLSRGYTVKASVRDPSDPKKTQHLVSLEGAKERLHLFKADLLEQGSFDSAIDGCHGVFHTASPFFNDAKDPQAELIDPAVKGTLNVLNSCAKASSVKRVVVTSSMAAVGYNGKPRTPDVTVDETWFSDPELCEASKMWYVLSKTLAEDAAWKLAKEKGLDIVTINPAMVIGPLLQPTLNTSAAAILNLINGAKTFPNLSFGWVNVKDVANAHIQAFEVPSANGRYCLVERVVHHSEIVNILRELYPNLPLPERCVDENPYVPTYQVSKDKTRSLGIDYIPLKVSIKETVESLKEKGFAQF | soluble |
| SAPFDVIGPQEPILAVVGEDAELPCRLSPNVSAKGMELRWFREKVSPAVFVSREGQEQEGEEMAEYRGRVSLVEDHIAEGSVAVRIQEVKASDDGEYRCFFRQDENYEEAIVHLKVAALGSDPHISMKVQESGEIQLECTSVGWYPEPQVQWRTHRGEEFPSMSESRNPDEEGLFTVRASVIIRDSSMKNVSCCIRNLLLGQEKEVEVSIPASFFPRLT | not soluble |
| SAPSQAPSRDRAGQEDEDRWEARGDRKARKPLVEKKRRARINESLQELRLLLAGTEVQAKLENAEVLELTVRRVQGALRGRAREREQLQAEASERFAAGYIQCMHEVHTFVSTCQAIDATVSAELLNHLLESMPLREGSSFQDLLGDSLAGLPGGSGRSSWPPGGSPESPLSSPPGPGDDLCSDLEEIPEAELNRVPAEGPDLVSTSLGSLTAARRAQSVWRPW | soluble |
| SAQQRALPQSKETLLQSYNKRLKDDIKSIMDNFTEIIKTAKIEDETQVSRATQGEQDNYEMHVRAANIVRAGESLMKLVSDLKQFLILNDFPSVNEAIDQRNQQLRTLQEECDRKLITLRDEISIDLYELEEEYYSSRYK | soluble |
| SASERIIEKTPENSKFHKHQQKNYPLMSILKFHCRLLRCVSRCFTGITISYPATKHGYTKFEKLEDPLTGYTNMKRTIILDLDETLVHATTHLPGVKHDFMVMVKMEREIMPIFVVKRPGVTEFLERLGENYKVVVFTAGLEEYASQVLDKLDKNGVISQRLYRDSCTEVNGKYVKDLSLVVGKDLRSALIVDDNPSSYSLQPENGVPIKAFVDDLKDQELLNLVEFLESCYAYEDMRDAVTDLLAN | soluble |
| SASRGKTETSKLKQNLEEQLDRLMQQLQDLEECREELDTDEYEETKKETLEQLSEFNDSLKKIMSGNMTLVDELSGMQLAIQAAISQAFKTPEVIRLFAKKQPGQLRTRLAEMDRDLMVGKLERDLYTQQKVEILTALRKLGEKLTADDEAFLSANAGAILSQFEKVSTDLGSGDKILALASFEVEKTKK | soluble |
| SDSASQDINLNSPNKGVLSDFMTDVPVDPGVVHRTPVVEGLTEGEEEELRAELAKVEEEIVTLRQVLAAKERHCGELKRRLGLSTLGELKQNLSRSWHDVQVSTAYVKTSEKLGEWNEKVTQSDLYKKTQETLSQAGQKTSAALSTMGSAISRKLGDMSSYSIRHSISMPVMRNSATFKSFEDRVGTIKSKVVGGRENGSDNLPPSPGSGDQTLPDHAPF | soluble |
| SDYEKFLLFGDSITEFAFNTRPIEDGKDQYALGAALVNEYTRKMDILQRGFKGYTSRWALKILPEILKHESNIVMATIFLGANDACSAGPQSVPLPEFIDNIRQMVSLMKSYHIRPIIIGPGLVDREKWEKEKSEEIALGYFRTNENFAIYSDALAKLANEEKVPFVALNKAFQQEGGDAWQQLLTDGLHFSGKGYKIFHDELLKVIETFYPQYHPKNMQYKLKDWRDVLDDGSNIMS | soluble |
| SEAVGVAPAPAGVPEKKLLEVKESRKAAPAAPSTSMAAKWAMKKKLVGGDAGYVLEDVPHLTDYLPELPTYPNPLQDNPAYSVVKQYFVNTDDTVTQKIVVHKTSARGTHFRRAGPRQRVYFQSDEVNAAIVTCGGLCPGLNTVIRELVCGLYDMYGVTSVVGIEGGYKGFYSRNTVALTPKSVNDIHKRGGTVLGTSRGGHDTGKIVDSIKDRGINQVYIIGGDGTQKGASVIYEEVRRRGLKCSVVGVPKTIDNDIAVIDKSFGFDTAVEEAQRAINAAHVEAESAENGIGVVKLMGRNSGFIAMYATLASRDVDCCLIPESPFYLEGKGGLLEFIEKRLKDNGHMVIVVAEGAGQDLIAKSMNFVDTQDASGNKLLLDVGLWLSQKIKDHFKKKRNFPITLKYIDPTYMIRAVRSNASDNVYCTLLAHSALHGAMAGYTGFTVAPVNGRHAYIPFYRITEKQNKVVITDRMWARVLCSTNQPCFLSHEDVEHLKHDDDEHHLHNTQLLEGESSPVKDSSKCNGTAAPV | soluble |
| SEEFLQRAKSKLNRSKRLEKVHVVIGPKSCDLDSLISTFTYAYFLDKVSPPGVLCLPVLNIPRTEFNYFTETRFILEELNISESFHIFRDEINLHQLNDEGKLSITLVGSSVLASEDKTLESAVVKVINPVEQSDANVEFRESSSSLVLKEILQEAPELITEQLAHRLRGSILFKWMTMESEKISEKQEEILSILEEKFPNLPPREDIINVLQETQFSAQGLSIEQTMLKDLKELSDGEIKVAISTVSMNLEVRVGMLF | soluble |
| SEGSGEQPGPQPQHPGDHRIRDGDFVVLKREDVFKAVQVQRRKKVTFEKQWFYLDNVIGHSYGTAFEVTSGGSLQPKKKREEPTAETKEAGTDNRNIVDDGKSQKLTQDDIKALKDKGIKGEEIVQQLIENSTTFRDKTEFAQDKYIKKKKKKYEAIITVVKPSTRILSIMYYAREPGKINHMRYDTLAQMLTLGNIRAGNKMIVMETCAGLVLGAMMERMGGFGSIIQLYPGGGPVRAATACFGFPKSFLSGLYEFPLNKVDSLLHGTFSAKMLSSEPKDSALVEESNGTLEEKQASEQENEDSMAEAPESNHPEDQETMETISQDPEHKGPKERGSKKDYIQEKQRRQEEQRKRHLEAAALLSERNADGLIVASRFHPTPLLLSLLDFVAPSRPFVVYCQYKEPLLECYTKLRERGGVINLRLSETWLRNYQVLPDRSHPKLLMSGGGGYLLSGFTVAMDNLKADTSLKSNASTLESHETEEPAAKKRKCPESDS | soluble |
| SESLRIIFAGTPDFAARHLDALLSSGHNVVGVFTQPDRPAGRGKKLMPSPVKVLAEEKGLPVFQPVSLRPQENQQLVAELQADVMVVVAYGLILPKAVLEMPRLGCINVHGSLLPRWRGAAPIQRSLWAGDAETGVTIMQMDVGLDTGDMLYKLSCPITAEDTSGTLYDKLAELGPQGLITTLKQLADGTAKPEVQDETLVTYAEKLSKEEARIDWSLSAAQLERCIRAFNPWPMSWLEIEGQPVKVWKASVIDTATNAAPGTILEANKQGIQVATGDGILNLLSLQPAGKKAMSAQDLLNSRREWFVPGNRLV | soluble |
| SESPEGAGPGEIVKDVKVPQAALNVSAHETGDMCRTPVAEEEEEVGIPIPAPGFLQVTERRRLHPLSRASCLRSPSWTKTRAEQNREKQPPSDPERQGTIVDTFLTVEEPKED | soluble |
| SETRGPQGAANPMDSSRSLGDLGPFPREVGRGAPLAPGARNPATAGASRSQGGGHEDRTADRALGPRAGEELDRESWVREKVLFLLHPERWLGTRGDPAREEVAGAEDLPHAGGEDHGEEPNYPSVFQREKRISGRRVAPPRDAADPPKYVLVRVEDYQVTQEVLQTSWAKGRMTTRTEEHFVTALTFRSSREGQPGERWGPAESRALQARTGASRVHAAGRRVSPSPGTWLEEIKL | soluble |
| SGEEANDDKKPTTKFELERETELRFEVEASQSVQLELLTGMAEIFGTELTRNKKFTFDAGAKVAVFTWHGCSVQLSGRTEVAYVSKDTPMLLYLNTHTALEQMRRQAEKEEERGPRVMVVGPTDVGKSTVCRLLLNYAVRLGRRPTYVELDVGQGSVSIPGTMGALYIERPADVEEGFSIQAPLVYHFGSTTPGTNIKLYNKITSRLADVFNQRCEVNRRASVSGCVINTCGWVKGSGYQALVHAASAFEVDVVVVLDQERLYNELKRDLPHFVRTVLLPKSGGVVERSKDFRRECRDERIREYFYGFRGCFYPHAFNVKFSDVKIYKVGAPTIPDSCLPLGMSQEDNQLKLVPVTPGRDMVHHLLSVSTAEGTEENLSETSVAGFIVVTSVDLEHQVFTVLSPAPRPLPKNFLLIMDIRFMDLK | not soluble |
| SGELLGTLSISHDVTEWHKIQQNLRDEMERRKDTEVALAQRDTILQTILDASPDSIGIFNENMVYQACNKPFVNALGISEVSDLIGKRLQDVIPVEMYTRLETSDLHALRQAEPVRYIDKVVSSDGHITWFDVVKSPFKDKA | not soluble |
| SGGRRSSWIKNWTLWKHFKDYFPIHLIKTQDLDPSHNYIFGFHPHGIMAVGAFGNFSVNYSDFKDLFPGFTSYLHVLPLWFWCPVFREYVMSVGLVSVSKKSVSYMVSKEGGGNISVIVLGGAKESLDAHPGKFTLFIRQRKGFVKIALTHGASLVPVVSFGENELFKQTDNPEGSWIRTVQNKLQKIMGFALPLFHARGVFQYNFGLMTYRKAIHTVVGRPIPVRQTLNPTQEQIEELHQTYMEELRKLFEEHKGKYGIPEHETLVLK | soluble |
| SGIVVSPILIPENQRQPFPRDVGKVVDSDRPEGSKFRLTGKGVDQDPKGTFRINENTGSVSVTRTLDRETIATYQLYVETTDASGKTLEGPVPLEVIVID | soluble |
| SGNLLKVLTCTDLEQEPNFFLDFENAQPTEAERETWEEVDVVLKDALGILDELQAYKGAGQEIREAIQNPNDEALQDQAWAAVVPLVGKLKKFYEFSQRLEAALHSLLRALTSETYDDPTQHLEREQALAKQFAEILHFTLRFDELKMTNPAIQNDFSYYRRTLSRMRINNVPAEGENEVNNELANRISLFYADATPMLKTLSDGTTKFVSENKNLPIENTTDVLSTMASVCKVMLETPEYRSRFSSEETVSFCLRVMVGVIILYDYVHPVGAFAKSSKIDMKGCIKVLKDQPPNSVEGLLNALRYTTKHLNDESTTKTIKSMLQ | soluble |
